Source: patent CN115536747A

Molecular target: 人TROP2 on cells (表达TROP2的CHO细胞系; MCF, MDA-MB-231, MDA-MB-468, HCC1395 breast cancer cells) (human) (UniProt P09758)
Experiment: flow cytometry, scFv-Fc on CHO cells expressing TROP2

Chain of UniProt P09758 (P09758 27-323): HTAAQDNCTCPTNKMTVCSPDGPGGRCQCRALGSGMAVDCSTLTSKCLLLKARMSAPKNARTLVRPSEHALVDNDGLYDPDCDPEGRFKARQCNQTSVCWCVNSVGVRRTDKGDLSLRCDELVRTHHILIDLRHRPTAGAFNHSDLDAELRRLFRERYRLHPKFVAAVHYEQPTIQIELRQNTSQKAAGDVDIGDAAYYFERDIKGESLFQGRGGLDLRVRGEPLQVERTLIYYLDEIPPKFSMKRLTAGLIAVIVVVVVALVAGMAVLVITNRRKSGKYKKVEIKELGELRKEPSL

- 阳性百分数: 89.3%
B1: 1F7 scFv-Fc蛋白 (from pFH-1F7; scFv fused to human IgG4 Fc) (Fc fusion, not shown: a dimerising Fc or GST)
chain: QVQLVQSGAEVKKPGASVKVSCKASGYTFTSYGINWVRQATGRGLEWMGWMNPNSGNTGYAQKFQGRVTITADESTSTAYMELSSLRSEDTAVYYCARPNTGGDGAFDIWGQGTMVTVSSGGSSRSSSSGGGGSGGGGDIQLTQSPSSVSASVGDRVTITCRASQGISSWLAWYRQKPGKAPKLLIYAASSLQSGVPSRFSGSGSGTDFTLTISSLQPEDFATYYCQQANSFPITFGQGTRLEIK
